The values that follow come from PMC3077903 (Molecular microbiology, 2011).

A word on the stoichiometry N: it is a count of units in the complex or per binding partner.

The data set “SEC” deals with the molecule itself. Nature of the data set: SEC. In general terms: In gel filtration, larger molecules generally elute earlier.
A further data set has as its target T1, MinD (E. coli, UniProt P0AEZ3 1-270).
T1 sequence (looked up): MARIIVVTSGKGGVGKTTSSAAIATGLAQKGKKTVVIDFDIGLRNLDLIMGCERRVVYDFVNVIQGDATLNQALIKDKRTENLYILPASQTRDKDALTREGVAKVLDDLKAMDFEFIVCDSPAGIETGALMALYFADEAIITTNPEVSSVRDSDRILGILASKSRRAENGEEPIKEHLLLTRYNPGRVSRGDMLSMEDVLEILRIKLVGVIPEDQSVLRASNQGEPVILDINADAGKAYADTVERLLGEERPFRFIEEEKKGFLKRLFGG
The experiment in a line: two-hybrid.

The target in another data set is T2, MinD-D152A (E. coli, UniProt P0AEZ3 1-270, D152A).
T2 sequence (looked up): T1 sequence (looked up) with D152A
Nature of the data set: two-hybrid.

Changes are numbered by the printed parent chain. Numbers in names are those of the source.

B1: MinDΔ10-D40A (domain or fragment, E. coli, UniProt P0AEZ3 1-260, looked up)
chain: MARIIVVTSGKGGVGKTTSSAAIATGLAQKGKKTVVIDFAIGLRNLDLIMGCERRVVYDFVNVIQGDATLNQALIKDKRTENLYILPASQTRDKDALTREGVAKVLDDLKAMDFEFIVCDSPAGIETGALMALYFADEAIITTNPEVSSVRDSDRILGILASKSRRAENGEEPIKEHLLLTRYNPGRVSRGDMLSMEDVLEILRIKLVGVIPEDQSVLRASNQGEPVILDINADAGKAYADTVERLLGEERPFRFIEEEK
Take B1: the “stoichiometry N” value in “SEC” is 2.

B2: MinE (full length) (natural protein, E. coli, UniProt P0A734 1-88, looked up)
chain: MALLDFFLSRKKNTANIAKERLQIIVAERRRSDAEPHYLPQLRKDILEVICKYVQIDPEMVTVQLEQKDGDISILELNVTLPEAEELK
B2: the “percent of the MinE-MinD β-galactosidase activity” value (shortened to “percent”) in the data set with MinD turned out to be 100%. Moreover, in the data set with MinD-D152A, the “percent” value turned out to be 44% and the β-galactosidase activity was 145 units of β-galactosidase activity.

B3: MinE^1-31 (domain or fragment, E. coli, UniProt P0A734 1-31, looked up)
chain: MALLDFFLSRKKNTANIAKERLQIIVAERRR
As to B3, the “percent” value came out at 120% with MinD and 8% with MinD-D152A. Further, the β-galactosidase activity was 398 units of β-galactosidase activity with MinD and 28 units of β-galactosidase activity in the data set with MinD-D152A.
